Data as given in article PMC3834315.

Target: T1, C-terminally hexa-histidine (His6)-tagged VapC10 (toxin, PIN-domain protein, slr1767) of Synechocystis sp. … (Synechocystis sp. PCC 6803, UniProt P73045 1-112)
T1 construct: also called VapC10-His6; VapC-His6; not shown: His6, C-terminal, kept
T1 sequence (looked up): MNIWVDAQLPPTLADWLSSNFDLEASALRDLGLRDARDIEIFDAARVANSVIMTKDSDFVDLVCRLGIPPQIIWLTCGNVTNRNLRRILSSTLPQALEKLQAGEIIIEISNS
Assay: pull-down
Settings: partners not purified

B1: VapB10 (antitoxin, COG2442-domain protein, ssr2962) of Synechocystis sp. PCC 6803 (natural protein, UniProt P73044 1-74, looked up)
chain: MNSLLSRITQTPGQCGGRPCIRGMRIRVSDILEMLAENVSTSEILEDFPDLEMADIQACLVFAARRTDFSRLTA
notes: source: E. coli BL21(DE3)(pJS653), co-expressed with VapC10-His6, in cleared lysate
stoichiometry N: ~1 VapB10 per VapC10-His6
